# Test system: FopA (Salmonella enterica serovar Typhimurium SL1344 (plasmid pCol1B9))
# Test: EMSA
row,Substance,Kd [nM]
1,Inc RNA,1000
2,Inc-repZ complex,1000
3,repZ 5'UTR fragment,1000
